One may read the EC50 as the concentration at which the effect is half-maximal. By IC50 is commonly meant the concentration at which inhibition is half-maximal. High values mean weaker potency, low ones greater potency.

We go through four molecules from US6599718B1, “Growth hormone secretagogue related receptors and nucleic acids” (priority 1998, dated 2003).

Ends that are not written are not given here.

The test system of experiment [1] is other G-protein coupled receptors. The experiment can be described thus: Aequorin assay, cells transfected with other G-protein coupled receptors in the same vector. The format is cell-based. The note with it: other GPCRs cloned into the same vector.
Another experiment deals with T1, GHSR-R (Homo sapiens, UniProt Q9HB89).
T1 construct: expressed in transfected cells
T1 sequence (Q9HB89 24-426 limits assumed): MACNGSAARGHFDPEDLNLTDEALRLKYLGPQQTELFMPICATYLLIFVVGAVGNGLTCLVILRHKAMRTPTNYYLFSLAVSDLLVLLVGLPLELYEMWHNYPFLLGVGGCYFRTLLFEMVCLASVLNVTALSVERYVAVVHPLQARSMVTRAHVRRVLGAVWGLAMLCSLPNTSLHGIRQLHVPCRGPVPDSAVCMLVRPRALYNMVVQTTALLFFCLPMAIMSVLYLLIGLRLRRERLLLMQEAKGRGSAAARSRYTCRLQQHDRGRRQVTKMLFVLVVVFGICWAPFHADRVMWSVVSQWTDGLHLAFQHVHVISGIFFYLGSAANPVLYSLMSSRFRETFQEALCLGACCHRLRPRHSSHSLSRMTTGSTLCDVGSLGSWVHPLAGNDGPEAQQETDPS
The experiment can be described thus: β-lactamase assay in CHO-NFAT-bla cells stably expressing GHSR-R. The format is cell-based. Conditions: triplicates, read-out: EC50 of NMU for GHSR-R. As to the method: β-lactamase assays were carried out as described previously; Zlokarnik et al., 1998, Science 279:84-88. CH.3xNFAT-bla cells (Aurora Biosciences, San Diego, Calif., USA) stably expressing GHSR-R were maintained at 37° C./5% CO2 in DMEM+10% fetal bovine serum (GIBCO-BRL, Gaithersburg, Md., USA), 1 mM sodium pyruvate, 1 mM non-essential amino acid, 55 μM 2-mecaptoethanol, 250 μg/ml zeocin, 5.0 μg/ml puromycin. Cells were seeded at 7,000 cells/well in 96-well clear bottom black-walled plates two days before assay.
The day the assay was performed, growth media was removed from the cells and replaced with 0.05 mL/well of phenol red-free Opti-MEM (GIBCO-BRL, Gaithersburg, Md., USA). Neuromedin U was diluted in Opti-MEM using 5-fold serial dilutions, and added into assay plates in triplicates at 0.05 ml/well. The plates were incubated at 37° C./5% CO2 for 4 hours. […]
Fluorescence was measured at emission wave length of 460 nM and 535 nM using an excitation wave length of 405 nM in a Tecan SpectraFluor Plus fluorescence microplate reader (Tecan Austria, Saltzburg, Austria). The ratio of fluorescence between 460 nM and 535 nM was calculated and plotted using the software GraphPad Prism Version 3.0 (GraphPad Software, Inc., San Diego, Calif., USA).

Experiment [2] has as its system Male rats (Charles River Sprague Dawley). Nature of the experiment: Overnight food intake after ICV (lateral ventricle) injection in rats. The format is in vivo, rat. The note with it: 10 μg ICV, relative to aCSF vehicle, P<0.01, n=6. As to the method: Animals and Diet: Male rats (Charles River Sprague Dawley) weighing 250-350 g were maintained in a temperature and humidity controlled facility with a 12 hour light/dark cycle (4:00 AM lights on). Rats were fed standard rodent ground chow (Purina#7012). Fresh diet was provided daily. Both food and water were supplied ad libitum throughout both the pre- and post-surgery periods.
ICV cannulation: Rats under ketamine/xylazine anesthesia, were stereotaxically implanted in the lateral ventricle with a 26G guide cannula. The guide cannula (Plastics One Roanoke,Va.) was secured with three set screws and dental cement. A dummy internal cannula was placed into the guide cannula to maintain cannula patency. Rats were individually housed in Nalgene metabolism cages and allowed to recover a minimum of seven days before injection with test compounds.
Acclimation: Beginning the day after surgery, each rat was acclimated to the handling and injection procedure, as well as, the feeding regimen. […] Food intake was measured two hours later and the following morning. […]
Confirmation of cannula placement: Once the rats were fully recovered from surgery, guide cannula placement was confirmed by evaluating the food intake induced by the injection of 5 μg of hNPY (Peninsula Laboratories, Belmont, Calif.) after a one hour satiation period. Two hour post-injection food intake was recorded for each rat. […]

Experiment [3] has as its target human growth hormone secretagogue related receptor (GHSR-R) (human) (UniProt Q9HB89). The experiment can be described thus: cell-based or functional assay.
Experiment [4] deals with T2, human growth hormone secretagogue related receptor (GHSR-R) (human, UniProt Q9HB89 24-426).
T2 sequence: T1 sequence (Q9HB89 24-426 limits assumed)
The experiment can be described thus: cell-based or functional assay.

Experiment [5] concerns the target T2, human growth hormone secretagogue …. Nature of the experiment: radioligand competition on membranes of HEK293 cells stably expressing human GHSR-R (summary of Example 10). The procedure:
(§1) All procedures were conducted on ice. Cell pellets were homogenized in a tissue grinder with a PTFE pestle (25 strokes). Crude cell membranes were then isolated by centrifugation of the cell lysate at 13,000×g for 30 minutes. Membrane pellets were resuspended at a protein concentration of 2.8 mg/ml in 50 mM Tris-HCl, pH 7.4, 5 mM MgCl2.
(§2) After incubation for 1 hour at room temperature, binding reactions were filtered through GC/C filters (Whatman; presoaked for 1 hour in 1% polyethylenimine) on a 48-well cell harvester (Brandel), washed 3×3 ml with ice-cold 50 mM Tris-HCl, pH 7.4 buffer with 10 mM MgCl2. Radioactivity on the filters was quantitated by gamma counting.
(In a radioligand displacement assay an active substance lowers the binding of a labelled ligand.)

For experiment [6] the target is unchanged. The experiment can be described thus: radioligand competition against 0.1 nM 125I-labeled rat NMU on membranes of HEK-293/aeq17 cells stably expressing human GHSR-R, filtration. The procedure:
as §1, §2

On to “neuromedin U (YKVNEYQGPVAPSGGFFLFRPRN; ends and bridges not checked; UniProt P12760 144-166, looked up) [NMU, neuropeptide neuromedin U; rat peptide (Phoenix Pharmaceuticals) in the food intake study]”, for which the “response to NMU in cells expressing other G-protein coupled receptors” value in experiment [1] is listed as “did not show any response”. In the experiment with GHSR-R, the EC50 is about 0.075 nM. Further, in experiment [2], the “suppression of food intake” value came out at 59%.
As to “neuromedin U (NMU), species and length not stated (peptide)”, in experiment [3], the EC50, beta-lactamase reporter assay in CHO-NFAT-bla cells is 0.075 nM and the EC50, beta-lactamase reporter assay in HEK293CRE-bla cells came out at 3 nM.
In experiment [3], “porcine neuromedin U-8 (porcine NMU-8) (from UniProt P34964 158-165) (peptide)” came in with an EC50, FLIPR intracellular Ca2+ assay, COS-7 cells transiently transfected with GHSR-R of 45 nM and an EC50, aequorin bioluminescence assay (Ca2+ mobilization), HEK293aeq/17 cells stably expressing GHSR-R of 2.1 nM.

B1: rat neuromedin U-23 (rat NMU-23) (peptide, UniProt P12760 144-166, looked up)
peptide: YKVNEYQGPVAPSGGFFLFRPRN-NH2
notes: mature; also called unlabeled rat neuromedin U-25; Neuromedin U-25 (rat)
As for B1, in experiment [4], the “EC50, FLIPR intracellular Ca2+ assay, COS-7 cells transiently transfected with GHSR-R” value came to 55 nM and the “EC50, aequorin bioluminescence assay (Ca2+ mobilization), HEK293aeq/17 cells stably expressing GHSR-R” value amounted to 14.1 nM. The molecule further yielded a concentration for half-maximal inhibition (IC50) in experiment [5] of 3 nM. Moreover, the IC50 in experiment [6] stood at 3.3 nM.
